According to article PMC7714071, “Interaction of amyloid beta with humanin and acetylcholinesterase is modulated by ATP” (FEBS Open Bio, 2020):

Tests used:
[1] = tested on: Aβ from H1299 cell-conditioned media; test: ELISA, HN (endogenous and exogenously added) and AChE bound to Aβ from H1299 media on 82E1 antibody; format: binding, human; conditions: H1299 cell-conditioned media, 82E1; Fig. 6
Experimental: Human NSCLC cell lines, A549 (ATCC CCL‐185) and H1299 (ATCC CRL‐5803), were purchased from the American Type Culture Collection (ATCC, Manassas, VA, USA). Cells were seeded as we reported earlier in 5 mL HyClone Dulbecco's modified Eagle's medium/nutrient mixture F‐12 (DMEM/F12) (GE Healthcare Life Sciences, Pittsburgh, PA, USA), supplemented with 10% Fetalgro bovine growth serum (FBS; RMBIO, Missoula, MT, USA), 50 U·mL^−1 penicillin, and […] streptomycin (Invitrogen, Life Technologies, Carlsbad, CA, USA) in 25‐cm^2 tissue culture flasks, and allowed to grow overnight in an incubator at 37 °C, 95% humidity, and 5% CO2. The cells were counted after trypan blue staining, with a hemocytometer.
ELISAs were carried out as we previously reported. […] TBST was then used to wash the wells 4× before proceeding in one of two ways: (a) biotinylated samples were analyzed by adding 100 µL streptavidin–HRP conjugate in TBST (1 : 2500 dilution) to the samples followed by incubation for 3 h at RT on a shaker, or (b) samples without biotin were analyzed by adding 100 µL TBST containing the primary antibody as per the manufacturer's recommendation, incubating for 3 h at RT on a shaker, followed by washing the wells 4× with TBST. […] The reaction was stopped with 100 µL 2 M H2SO4 after incubating at RT for 0.5–15 min, resulting in a yellow color change, measured by absorbance at 450 nm. […]

[2] = tested on: Aβ40; conditions: decreased lag phase; cited from earlier work
Description: Almost all types of cells produce amyloid beta (Aβ), a peptide well recognized for its role in the development and progression of different stages of Alzheimer's disease (AD). The Aβ peptide is ~ 4 kDa and derived from the sequential processing of the higher molecular weight amyloid precursor protein by two membrane‐bound endoproteases, β‐ and γ‐secretase. Different C‐terminal Aβ heterogeneity results from processing by γ‐secretase, where Aβ40 represents the most abundant isoform (~ 90%) as compared to Aβ42 (~ 10%). Self‐assembled Aβ40/42 peptides into amyloid fib ... || Humanin (HN) is a secreted 21‐ to 24‐amino acid mitochondrial‐derived peptide. Certain amino acid residues in HN have been identified to be involved in different functions, including binding to Aβ [55, 56]. […] HN was identified previously as a binding partner of Aβ, likely modulating its aggregation pathways and counteracting its deleterious effects. […] The specific epitopes at the binding interface between HN and Aβ40 were identified, by proteolytic epitope excision and extraction in addition to affinity–mass spectrometric data analysis, to be HN (5–15) and Aβ (17–28). […] Inhibiting the 17–28 region of Aβ reduced aggregation of the neurotoxic amyloid fibrils and related cytotoxicity in SH‐SY5Y, a human neuroblastoma cell ... || (+ 1 further places)

[3] = tested on: Aβ40; conditions: HN and AChE compared; cited from earlier work
Description: Amino acid residues involved in direct interactions between HN and Aβ40 were identified previously by molecular modeling. The specific epitopes at the binding interface between HN and Aβ40 were identified, by proteolytic epitope excision and extraction in addition to affinity–mass spectrometric data analysis, to be HN (5–15) and Aβ (17–28). […] Inhibiting the 17–28 region of Aβ reduced aggregation of the neurotoxic amyloid fibrils and related cytotoxicity in SH‐SY5Y, a human neuroblastoma cell ... || Humanin has been previously reported to bind amino acid residues 17–28 of Aβ (Fig. 1). AChE is also known to bind Aβ (1–16) and the Aβ (12–28) region (Fig. 1). Since the binding sites of AChE and HN on Aβ are overlapping, we previously investigated whether HN and AChE can simultaneously bind Aβ [79].

B1: acetylcholinesterase (protein)
chain: EGREDAELLVTVRGGRLRGIRLKTPGGPVSAFLGIPFAEPPMGPRRFLPPEPKQPWSGVVDATTFQSVCYQYVDTLYPGFEGTEMWNPNRELSEDCLYLNVWTPYPRPTSPTPVLVWIYGGGFYSGASSLDVYDGRFLVQAERTVLVSMNYRVGAFGFLALPGSREAPGNVGLLDQRLALQWVQENVAAFGGDPTSVTLFGESAGAASVGMHLLSPPSRGLFHRAVLQSGAPNGPWATVGMGEARRRATQLAHLVGCPPGGTGGNDTELVACLRTRPAQVLVNHEWHVLPQESVFRFSFVPVVDGDFLSDTPEALINAGDFHGLQVLVGVVKDEGSYFLVYGAPGFSKDNESLISRAEFLAGVRVGVPQVSDLAAEAVVLHYTDWLHPEDPARLREALSDVVGDHNVVCPVAQLAGRLAAQGARVYAYVFEHRASTLSWPLWMGVPHGYEIEFIFGIPLDPSRNYTAEEKIFAQRLMRYWANFARTGDPNEPRDPKAPQWPPYTAGAQQYVSLDLRPLEVRRGLRAQACAFWNRFLPKLLSATDTLDEAERQWKAEFHRWSSYMVHWKNQFDHYSKQDRCSDL
AChE bound to Aβ [1]: barely detectable levels | effect on Aβ40 aggregation [2]: significantly accelerated the aggregation | affinity for Aβ40 [3]: comparable affinities
